From PMC8165282

Molecular target: duck STING-LgBiT-Myc (pBiT-STING-LgBiT-Myc)
Assay: NanoBiT luciferase complementation in DEFs
Settings: pBiT-STING-LgBiT-Myc 400 ng/well, pBiT-2KNS4B-SmBiT-Flag or mutant 400 ng/well, 20 h posttransfection, read off a plot

Substance	response (parent: est. 3.3e7)	response (parent: est. 1.7e6)
duck TMUV 2KNS4B-SmBiT-Flag (pBiT-2KNS4B-SmBiT-Flag) D12A	2.4e+07 RLU	
duck TMUV 2KNS4B-SmBiT-Flag (pBiT-2KNS4B-SmBiT-Flag) D34A	1.7e+07 RLU	
duck TMUV 2KNS4B-SmBiT-Flag (pBiT-2KNS4B-SmBiT-Flag) D34A; L35A; R36A		830000 RLU
duck TMUV 2KNS4B-SmBiT-Flag (pBiT-2KNS4B-SmBiT-Flag) E2A	2.4e+07 RLU	
duck TMUV 2KNS4B-SmBiT-Flag (pBiT-2KNS4B-SmBiT-Flag) E7A	2.5e+07 RLU	
duck TMUV 2KNS4B-SmBiT-Flag (pBiT-2KNS4B-SmBiT-Flag) E7A; Q8A; T9A		830000 RLU
duck TMUV 2KNS4B-SmBiT-Flag (pBiT-2KNS4B-SmBiT-Flag) G4A	2.3e+07 RLU	
duck TMUV 2KNS4B-SmBiT-Flag (pBiT-2KNS4B-SmBiT-Flag) G4A; W5A; L6A		1.3e+06 RLU
duck TMUV 2KNS4B-SmBiT-Flag (pBiT-2KNS4B-SmBiT-Flag) K10A	2e+07 RLU	
duck TMUV 2KNS4B-SmBiT-Flag (pBiT-2KNS4B-SmBiT-Flag) K10A; K11A; D12A		1.4e+06 RLU
duck TMUV 2KNS4B-SmBiT-Flag (pBiT-2KNS4B-SmBiT-Flag) K11A	2.6e+07 RLU	
duck TMUV 2KNS4B-SmBiT-Flag (pBiT-2KNS4B-SmBiT-Flag) L6A	2.7e+07 RLU	
duck TMUV 2KNS4B-SmBiT-Flag (pBiT-2KNS4B-SmBiT-Flag) L35A	2.6e+07 RLU	
duck TMUV 2KNS4B-SmBiT-Flag (pBiT-2KNS4B-SmBiT-Flag) M3A	2.2e+07 RLU	
duck TMUV 2KNS4B-SmBiT-Flag (pBiT-2KNS4B-SmBiT-Flag) N1A	3.6e+07 RLU	
duck TMUV 2KNS4B-SmBiT-Flag (pBiT-2KNS4B-SmBiT-Flag) N1A; E2A; M3A		930000 RLU
duck TMUV 2KNS4B-SmBiT-Flag (pBiT-2KNS4B-SmBiT-Flag) Q8A	2.7e+07 RLU	
duck TMUV 2KNS4B-SmBiT-Flag (pBiT-2KNS4B-SmBiT-Flag) R36A	1.9e+07 RLU	
duck TMUV 2KNS4B-SmBiT-Flag (pBiT-2KNS4B-SmBiT-Flag) T9A	2.9e+07 RLU	
duck TMUV 2KNS4B-SmBiT-Flag (pBiT-2KNS4B-SmBiT-Flag) W5A	1.5e+07 RLU	
